Test results reported in patent US11147859B2, “Diffusion enhancing compounds and their use alone or with thrombolytics” (Diffusion Pharmaceuticals LLC, priority 2009, dated 2021).

Tested on: rabbit small clot embolic stroke model (RSCEM)
Assay: Rabbit small clot embolic stroke model (RSCEM), quantal dose-response analysis of behavior
Format: in vivo, Male New Zealand white rabbits
Conditions: for group P50: Mean±SEM
From the text: Methods: This model uses rabbits and is known as RSCEM. Male New Zealand white rabbits were anesthetized using isoflurane (5% induction, 2% maintenance by facemask), the bifurcation of the right carotid artery was exposed and the external carotid was ligated just distal to the bifurcation, where a catheter was inserted into the common carotid and secured with ligatures. The incision was closed around the catheter with the distal ends left accessible outside the neck; the catheter was filled with heparinized saline and plugged with an injection cap. Rabbits were allowed to recover from anesthesia for a minimum of 2 h until they behaved normally. After that time, microdots were prepared from blood drawn from a donor rabbit and allowed to clot at 37° C., as described in detail previously. Microclots were re-suspended in PBS, then washed and allowed to settle, followed by aspiration of the supernatant and spiking of the microclots with tracer quantities of 15-μm radiolabeled microspheres. The specific activity of the particles was determined by removing an aliquot, after which appropriate volumes of PBS solution were added so that a predetermined weight of clot particles were rapidly injected through the catheter and both the syringe and catheter were flushed with 5 ml of normal saline.
Quantal Dose-Response Analysis: For behavioral analysis, a quantal dose-response data analysis technique was used as described previously. A wide range of lesion volumes is induced to generate both normal and abnormal animals with various behavioral deficits. […] Briefly, to evaluate the quantitative relationship between numbers of clots in the brain and neurological deficits (coma or death), logistic (S-shaped) curves are fitted by computer to the quantal dose-response data (see FIGS. 1 and 2).
These parameters are measures of the amount of microclots (in mg) that produce neurologic dysfunction in 50% of a group of animals (P50). The P50 values are then calculated as described previously and are presented as Mean±SEM. […] The data were analyzed using the t-test. […]

B1: tPA: Tissue plasminogen activator, a protein thrombolytic agent (clot-busting drug); Genentech lots (protein, UniProt P00750 36-562, looked up)
Tissue-type plasminogen …: SYQVICRDEKTQMIYQQHQSWLRPVLRSNRVEYCWCNSGRAQCHSVPVKSCSEPRCFNGGTCQQALYFSDFVCQCPEGFAGKCCEIDTRATCYEDQGISYRGTWSTAESGAECTNWNSSALAQKPYSGRRPDAIRLGLGNHNYCRNPDRDSKPWCYVFKAGKYSSEFCSTPACSEGNSDCYFGNGSAYRGTHSLTESGASCLPWNSMILIGKVYTAQNPSAQALGLGKHNYCRNPDGDAKPWCHVLKNRRLTWEYCDVPSCSTCGLRQYSQPQFRIKGGLFADIASHPWQAAIFAKHRRSPGERFLCGGILISSCWILSAAHCFQERFPPHHLTVILGRTYRVVPGEEEQKFEVEKYIVHKEFDDDTYDNDIALLQLKSDSSRCAQESSVVRTVCLPPADLQLPDWTECELSGYGKHEALSPFYSERLKEAHVRLYPSSRCTSQHLLNRTVTDNMLCAGDTRSGGPQANLHDACQGDSGGPLVCLNDGRMTLVGIISWGLGCGQKDVPGVYTKVTNYLDWIRDNMRP
group P50 (tPA 3.3 mg/kg IV given 1 hour following embolization): 2.48 ± 0.17 mg
group P50 (tPA 3.3 mg/kg IV given 3 hours following embolization): 1.00 ± 0.56 mg
effect on behavior / P50 value (in words) (tPA given 3 hours following embolization): ineffective
